Measurements: a protein production outcome set (Wang et al. 2014)

Assay: label from the status in PepcDB records

| Sequence | protein production |
| --- | --- |
| MWYDYRFCAYPDRTGVAAEAERHIDIHRQAYNHTRYEYNALDTDEDNIGSAYQHQKRLTEWKDEWSVFSEVHSKALQKTVERFYDNLSNLSEKKQNGHKVGWLKWKPPREYQSVTYSQSGFELKNTSGRTATLWLSKIGDIPIRYHRPIPDNATIKEVTLKKETTGEWYVTFGLEVEDTTLPEKPDVDDLDAEDCVGIDLGITNYIYTSDGDSVDWLNLSDEYERLRREQRNLSRKEHRSNNWKKQRREVAKVKRRIKRKVEDFQHKLTTWLVKTYDAVFVEDLNVSGMLQQRGNARNKQDAAWRGFINMLEYKGDLYGTHVVQVNPAGTTKECAECGVETEKPLWVREHSCPSCGFEADRDANASYNVLSRGLRELGLGQAEVTPVETATAVETDGGRSSSVPASRVIETGSLGVVRKTESSVMTRDEVPRTT | failed |
| MQDSRPHPHDWNVSTDEAKRIQRRLASEVTERALPDGGETVAGIDVSVRDDTAQAAVSVLRLPELDVVDEATHRCEVPFPYVPGLLSFREMPAVLPALERLHSTPDVFVTDSHGAAHPRRFGLACHLGVLLDAPAIGVAKSILVGAPQGELGPEKGSRVPLVDDGETVGTVLRTRTDVNPVYVSVGHRCTLDGAADLMLDCSPRYKIPEPTRQAHKLSRAEG | failed |
| MIKGEQKRYSEMTKEELQQEIAMLTEKARKAEQMGMVNEYAVYERKIAMAKAYMLNPADFHPGEIYEIEGAPGEYFKVRYLKGVFAWGWRLKGNGEEEALPISLLRKPNLPQS | not failed |
| MKWARPSMHSSAQRKLIMTRILSIIGVSLCIAMLSPVLQAANLKTLDVAALPGDRIELKLAFDAPVPAPRGYTTAQPARIALDLPGVTSQLETKSRELGTGNARSVVVVQAQDRTRVIINLTTLAPYSSRVDGNNLFVVIGQGAAAAQASQPTTAMGAQRVAVPPPAPASARPFIPAGVKAIRNVDFQRGELGEGNVVIDLSNPSIAPDIQEQGGKIRVDFAKTQLPEPLRVRLDVKDFATPVQFVSASATGDKASILIEPSGAFDYSAFQTENKLTISVRPLTNEDLDRRAADKPVYTGEKLSLNFQDIDVRSVLQLIADFTNLNLVASDTVQGGITLRLQNVPWDQALDLVLKTKGLDKRKVGSVLLVAPADEIAARERQELESLKQIAELAPLRRELLQVNYAKAADIAKLFQSVTSAESKAEERGSITVDDRTNNIIAYQTQDRLDELRRIVSQLDIPVRQVMIEARIVEANVDYNKQLGVRWGGSTNTSRNGKWTTYGLDDNGDEGGNTNANLTSNIPFVDLGAADATTGIGLGFVTNNTLLDLELSAMEKTGNGEIVSQPKVVTSDKETAKILKGTEIPYQESSSSGATTVSFKEASLSLEVTPQITPDNRIIMEVKVTKDEPDYLNAVLGVPPIKKNEVNAKVLISDGETIVIGGVFSNTQSKVVDKVPFLGDVPYLGRLFRRDVVSESKSELLVFLTPRIMNNQAISVSR | failed |
| MTEKLIEQLEARINDLECQVAFQEQTIEDLNSALSQQQLQITKMQDQMKYVVGKVKNMDSSNMEDPANEPPPPHY | failed |
| MSVKTWRKIAIDIIRDFDHNIMPLFGNPKASETISISPSGDETKVVDKVAENIIISKFKDLGVNVVSEEIGRIDQGSDYTVVVDPLDGSYNFINGIPFFAVSVAIFHEKDPIYAFIYEPIVERLYEGIPGKGSYLNGEKIKVRELAEKPSISFYTKGKGTKIIDKVKRTRTLGAIALELAYLARGALDAVVDIRNYLRPTDIAAGVVIAREAGAIVKDLDGKDVEITFSATEKVNIIAANNEELLETILRSIEK | not failed |
| MRDIPLLIPILLILFVSLGLARVKTILVVGAFSLFFVYGYLKGENIGTPRRRIEVNDDVFSVMLILSVIIILIQIANLRGIPLLHPHLRTHLNPKLTGLTYFLGLPSSVYLIIRGKKLGFLYPLMVALYAYRTPVLVALIALTLPYLEDMKKGKKAVEIGVIGIFLLFLISYFRGSLSFLTRIQGTTSVLDVIVKRCSVVGFYKGELQLAGVKSYIFGGLGPRTMIARYLGIPGVTITATLIGGMYLDFGLLSSLEMLLLGFYYGIMKKLRSDVGRSFYYSTLSYGIVGVETGILDLPVYLMILVGLLIAWREFDGNLRKDIRRIISWISSSSNNW | failed |
| MANNSPNAAVSVQSPTHQQALACLRELVGHPEAQFHDGQYEAIEALVDAGRRALVVQRTGWGKSAVYFVASLLLRRRGSGPTLIVSPLLALMRDQVAAAARAGVRAVAINSANALEWDTVLAQLAADEVDVLLVSPERLTNPSFRENQLPELIRRTGLLVIDEAHCISDWGHDFRPDYRRIADLIAQLPESVPVLATTATANSRVVHDIEEQLGAGVLTIRGALGRESLRLGVLTLPDSRDRLGWLLTHLADMPGSGIIYTLTVSAAEDTARLLAEAGHNVLSYTGRTDPADRERAEQLLKDNQVKALVATSALGMGFDKPDLGFVIHLGAPSSPVAYYQQVGRAGRGAANADVLLLPGSEDREIWQYFATASMPSAEKAAAVLGVLGEAGSALSTVALEARVDLRRTPLELLLKVLAVDGAVERVGGGWRSTGQPWNYDAERYARIAEARVDEQDSMVIYQDTAGCRMEYITSVLDDETAASCGRCDNCAGRWFPVDVAASAADAAGQTLRRAGIAVEPRLQWPSGMDRLGVAAKGKIKPDESVSEGRILARLTDLGWGGALRELFAAGAPDHAVDPAMLQACVQVLREWSGAEGGTPWSGVGRPAAVVSIPSRSKPQLVESLAQGIAGIGRMPYLGQLQPQYGGPTGARGGNSAYRLAGVWDRLVVGPELAQALAGTGGQPVLLVDDLIDSRWTMTVSARALRQAGVSAVLPLALAQAG | failed |
| MRVEENYHAFFTEASGFLNERIFKDYLRRLAYGIDASCYRYIPKIVAWVKNEEEVQKLCVLAKKHGVSLTFRAAGSSLSGQAICDGVLVMVTHFFKDAQILDNAQSIQLSCGVIGSNANALLKPYHKKIGPDPSTINTAMIGGIVANNASGMCCGVEQNSYKTLKSLRVILADGTLLDTANQESVESFKNAHKDLIEGVLNLRKEILEDKELHALIKKKYEIKNTTGYSLNALIDFEDPIEIISHLFIGSEGTLGFISSVELECVKDYAYKTCALLFYENLERCAKAAQILAALKAKQPEMISSAELMDYACLKSVKGLEGMPSVVLEIKEPNACLLIQSESDDPLILENSMQTILNALSAIPVVLDSQISSDPSIYQSWWKIRKGIFPIAASKRKSQSSVIIEDICFSQEDFVEGAKAIEGLLKKHGFKDNGIIFGHALSGNLHFVVTPILENEAERKAFENLVSEMFLMVSKSSGSIKAEHGTGRMVAPFVEMEWGEKAYKIHKQIKELFDPNGILNPDVIITNDKEIHTKNLKSIYPIEEHLDMCMECGFCERICPSKDLSLTPRQRIVIHREVEHLKERVSHGHHEDQVLLDELLKESEYLAHATCAVCHMCSTLCPLEIDTGKIALNYYQKNPKGEKIASKILNHMQTTTSMARFSLKSARLVQNLIGSHNLVSLTKGIKKFIKPFPKAFYYMPKNNAYPLENKTLKSEEKVIYFSTCINRSFAPSNKMADKRCIQEVFESLCQKAKVSVMYPNGLNALCCGKAFINYTDLTKQNNEKNHAIFLQLSDKGKIPIVLDHSACSTHFFKQMKAYKDLKVYDLSVYIEEVLSPKLKFNPINEDIGLYTMCALKLENKEELLFNLAKKCTLGEIVIHKETGCCGFAGNKGFFTPELNESALNGFQAFYQSYDLKRGFSTSSTCEIGLSEKTRFSWQHIAYLVDACTL | failed |
| MRRSRRAALAACLILAIAATPGAVLAQTVDELYASAVKARQARHFDEAVDLLRRALALKPDNADALVQLGFAELGRNDLAAARDAFSKALSLAPTYQDASFGLAEIEFRSGNLDAALPLAESVARAQPGNTDAAALVENIRKAMQAAGGEARKASVAAPRAKPRPDPVAGLMEQGRRLRTAGKLPEAEKVYRRALGLAPKNTDILVALGLIVGSSQRFDEAGHFFDRALAIKPGLLDARIGKIRMAIWQGDVPSARALVDDVLASSPDNVEALDLDAKVALLEADYTRAGQSFQRVLAIDPRNAEALVGIGDVRRAQGDDDAARQAYREALAIEPGSSDIEQRLAVPPPRKWRLDLGTEVSDLTNGLSDWTDSSAGLAYRLSPRTTISGRTRVATRFGRTDVQIEGRIDEAFSPAFSAYAFAAATPDADFLARYSIGAGASLQVMAAAKAFGPLSLNIDTRYDNFTNTNVTSVSPWVQGYIFDGRLGLSARWVHAADDIGTRADGYVLRVDLAMAQRFNLFGGYADAPEISDGTLVPTRTVFGGISWDVNDPLTLRASIAHEQRPTFDRSIFGLGLTARF | failed |
| MEKVTFVRIADLENHNNDGGFWTVIDGKVYDIKDFQTQSLTENSILAQFAGEDPVVALEAALQFEDTRESMHAFCVGQYLEPDQEGVTIP | not failed |
| MLIVGLNGSPKKDGNTAFLVREGLAAAAAAGAETALIHIADAMADQKIPYCTQCSNPCQGACSRHNRLGEAFDLLRRADGLLLGSPVYFGSVSAQLKAFWDKSRILRKEKALLNVVGAGVTVGGARFGGQETTMKALFDMMLVQGMILVGDGHTEADCGHQGSCGQAPASSDEFAIRRVRLAGRRLAEVAAATMTLRRHRA | failed |
| MPWLLPREIAPLHQKALDRYLGSLTERLSDPNVDRNALVREELARLLYGRPYEELLEANPLAAMGLDPEGITFEAEYYAATDLEKFRRVKPLLWFWKVLDLTPLGQSVHSGVAIRRALAPFIFKRVGKNPKFFQNVEFSVGYNLELGDDVVVHRYVFLDDIGGIKIGDRTSLSDYVNVYSHTHHVLASPDVTLKETIIGSGVRITYHATVLAGVRIGDDAMVGTGAVVTKDIPPHAIALGIPARPVRYKVRHDCPYCRKGEPHPSDLVPKLPDRKGNPDYPDFLPPGFGTREAGS | failed |
| MAVISPATRFAPPLNRPFHRRSILASFHSSSRNFLFLGKPTPSSTIVSVRCQKPVSDGVSSMESMNHVASSVSSSIDFLTLCHRLKGINGPESIADHMYRMALMALIAGDLTGVDRERCIKMAIVHDIAEAIVGDITPSDGVPKEEKSRRETAALKEMCEVLGGGLRAEEITELWLEYENNASLEANIVKDFDKVEMILQALEYEAEHGKVLDEFFISTAGKFQTEIGKSWAAEINARRKSQLTNRQR | failed |
| MKNFLETIEDMILIINREGRLLYANTAVPKKLGYPHEELMSMHILTITSAGKMAEGEKILAELFAGKKESLPLSLEKKEGTSIPAKARIWQGKWHNEPCLFAIIKDLSKEERASSPPFLEPDEIHTGISGAAWCEKPDFASDISCELKDEEPSKPRVLIVDDQLFNLKLLESALKEDYIVMTADNGIEALELATGKSQPDIILLDIIMPVMDGYEVCIRLREMPETRDIPVIFLSALKNEKNEEYALQLGVVDYITKPFSLPIIKGRLRNHVEQKKYRDRQKENSYIDELTQIANRRKFNETVTIEWNRARRNGNSLSVLMIDVDCFKKYNDFYGHLEGDKCLYKIAQTLKSNVKRSSDLVARWGGEEFACVLTDTDRIGAMLVGERLRRAVVKLNIPSEISDVDRVVTASIGVATALPAVDNSLEELLHKADMALYKAKKTGRNCVCTP | failed |
| MGSMDQSIAVKSPLTYAEALANTIMNTYTVEELPPANRWHYHQGVFLCGVLRLWEATGEKRYFEYAKAYADLLIDDNGNLLFRRDELDAIQAGLILFPLYEQTKDERYVKAAKRLRSLYGTLNRTSEGGFWHKDGYPYQMWLDGLYMGGPFALKYANLKQETELFDQVVLQESLMRKHTKDAKTGLFYHAWDEAKKMPWANEETGCSPEFWARSIGWYVMSLADMIEELPKKHPNRHVWKNTLQDMIKSICRYQDKETGLWYQIVDKGDRSDNWLESSGSCLYMYAIAKGINKGYLDRAYETTLLKAYQGLIQHKTETSEDGAFLVKDICVGTSAGFYDYYVSRERSTNDLHGAGAFILAMTELEPLFRSAGK | not failed |
| MSLFMSCVGILVLLFIGFLLSENKKAINVRTIVIALITQISFGAFVMYVPLGQGILQMMSDAVNHIINFSNEGLTFVFGDLANYKVGFIFVINVLCVVIFISALISVLYYLKIMQFVINLIGGALSKLFGTSKAESMSATANIFVGPIEAPSMVRPLIKKMTRSELFAVMTGGLASVAGGTMIGYINLGIDPKYILTACFMTAPAGLLFAKLLCPQTEQEKITNEIEIDDETTPKSLLDAITDGSIMGMNQVATVTALLISFVALIALVNSLVGGIGDLISIEGLSLELIIGYILSPLAFLMGVPWSEAVTAASLIGQKIAVNEFVAYINFIEIAETLSPKTQAIVVFSLCGFANIGSLAMVIGGLGAICPNKRHILSEIGPRVLMAAILANLMSGTIAGALLSFS | failed |
